Test results taken from patent US20210071139A1 (published 2021).

Target: histone H4 (UniProt P62806 2-103)
Test: IP with anti-TOX from EL4 lysate, Western blot (FIG. 60L)

B1: TOX (other)
chain: MDVRFYPPPAQPAAAPAAPCLGPSPCLDPYYCNKFDGENMYMSMTEPSQDYVPASQSYPGPSLESEDFNIPPITPPSLPDHSLVHLNEVESGYHSLCHPMNHNGLLPFHPQTMDLPEITVSNMLGQDGALLSNSISVMQEIGNAEGAQYSSHPQMAAMRPRGQPTDIRQQASMMQPGQLTTINQSQLSAQLGLNMGGTNVAHNSPSPPGSKSATPSPSSSVHEDECEDASKINGGEKRPASDMGKKPKTPKKKKKKDPNEPQKPVSAYALFFRDTQAAIKGQNPNATFGEVSKIVASMWDGLGEEQKQVYKKKTEAAKKEYLKQLAAYRASLVSKSYTDPVDVKTSQPPQLVNSKPSVFHGPSQAHSALYLSSHYHQQPGMTPQLTAMHPSLPRNIAPKPNNQMPVTVSIANMAVSPPPPLQISPPLHQHLSMQQHQSLAMQQPLGSQLPMQVQTALHSPTMQQGFTLQPDYQTIINPTSTAAQVVTQAMEYVRSGCRNPPPQPVDWSTDYCSSGGMQRDKALYLT
notes: Bait of the immunoprecipitations (anti-TOX ab155768, Abcam); also called TOX protein
Q: Does B1 bind?
A: binds
